Data set [1] concerns the target T1, IVT-Nrf2;IVT-JDP2 (;mouse, UniProt Q60795;P97875 1-597;1-163, |).
T1 sequence 1: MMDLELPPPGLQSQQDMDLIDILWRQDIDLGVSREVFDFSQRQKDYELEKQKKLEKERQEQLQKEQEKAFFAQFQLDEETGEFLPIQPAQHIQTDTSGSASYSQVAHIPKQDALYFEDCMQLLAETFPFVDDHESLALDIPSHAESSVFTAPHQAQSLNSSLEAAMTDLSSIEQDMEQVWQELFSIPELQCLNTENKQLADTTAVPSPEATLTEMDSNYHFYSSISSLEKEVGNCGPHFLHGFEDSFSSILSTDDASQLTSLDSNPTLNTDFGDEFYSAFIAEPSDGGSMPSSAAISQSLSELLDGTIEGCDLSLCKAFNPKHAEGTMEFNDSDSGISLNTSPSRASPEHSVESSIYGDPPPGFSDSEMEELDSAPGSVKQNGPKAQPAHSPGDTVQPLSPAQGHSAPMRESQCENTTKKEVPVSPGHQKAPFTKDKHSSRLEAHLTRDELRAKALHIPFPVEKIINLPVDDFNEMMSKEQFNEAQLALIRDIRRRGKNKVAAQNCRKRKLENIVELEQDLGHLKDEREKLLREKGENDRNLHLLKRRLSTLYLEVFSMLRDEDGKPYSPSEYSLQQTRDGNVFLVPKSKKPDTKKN
T1 sequence 2: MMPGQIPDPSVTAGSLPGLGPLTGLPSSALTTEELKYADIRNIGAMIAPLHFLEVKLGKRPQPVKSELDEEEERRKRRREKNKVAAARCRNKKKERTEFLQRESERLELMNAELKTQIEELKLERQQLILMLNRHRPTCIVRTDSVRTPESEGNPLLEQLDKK
The data set can be described thus: EMSA; EMSA: 5 ug GST fusion or 10 ng IVT protein, 25 C 30 min; 5% native PAGE in 0.5x TBE at 4 C; binding buffer, salt and pH not given. Particulars: protein: ivt;ivt; tags: ;; copies: 1;1; label: 32P 5' end (T4 kinase) as probe; blunt.

The target of data set [2] is IVT-Nrf2;IVT-JDP2;IVT-MafK (;mouse;rat, UniProt Q60795;P97875;Q8K4B3 1-597;1-163;1-156, ||). The data set is described as follows: EMSA; large complex with higher DNA-binding activity; EMSA: 5 ug GST fusion or 10 ng IVT protein, 25 C 30 min; 5% native PAGE in 0.5x TBE at 4 C; binding buffer, salt and pH not given. As to conditions: tags: ;;, label: 32P 5' end (T4 kinase) as probe, blunt.

The values that follow come from publication PMC3847324, “Jun dimerization protein 2 is a critical component of the Nrf2/MafK complex regulating the response to ROS homeostasis”.

B1: human NQO1-ARE WT (dsDNA)
DNA 1: CAGTCACAGTGACTCAGCAGAATCT
DNA 2: AGATTCTGCTGAGTCACTGTGACTG
Consider B1, for which the binding result in data set [1] and in data set [2] was “binds” throughout.
